Source: PMC6182147
Like-named read-outs stand apart in the source and are kept apart here.

Columns and labels:
[1] = molecular target: Clp-GST (L. enzymogenes Clp purified as GST-fusion) (Lysobacter enzymogenes) (UniProt Q7WZ07); assay: MST
[2] = molecular target: Clp-GST (L. enzymogenes Clp purified as GST-fusion) (Lysobacter enzymogenes) (UniProt Q7WZ07); assay: MST; remark: listed apart in the source

- Kd [1]: 7.18 nM
- Kd [2]: 1.42 nM
Substance: LchP-PGE-MBP (cytoplasmic fragment of LchP, PAS+GGDEF+EAL domains, fused to maltose binding protein) (domain or fragment)
